Measurements reported in the NTF2 design screens of Basanta et al. (2020).

Experiment: protease stability score; higher = more stable; yeast display proteolysis, trypsin and chymotrypsin;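 note: relative to predicted unfolded state with 0 unfolded-like and 1 meaning tenfold more protease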

Sequence | protease stability score
TEDEEAARRHTQEWIHAVRTGDEELLERMIDPEYKLDYNGVDIIGREEYIRIRSEQLQKFKNMRIEVRIHELRHQGDKIDLDVLIIEKWNGVTFRERSHLVILKFDGRWFIRFTSIK | 0.801
TEDEEAFKENIRILLELTKTGDFKEMSKLLDPHVRIIINGKLFVGMEHADRLVRERNEEWRIESLEVEHLQSVDGQIHADTKMHVNINGVHRIHDTHQIVLKVNGRWFMEQIEIR | 1.01
TEDEEDSLFAFDEWVKSVETGDEHTLSKLADPHTRLNVNGVDQHGRENMSHMMLRLANRYDHIEIRLHSWRLINGRIEVDSRVINVVGDKRIESNFHMFILKVNGRWLMHSVHFE | 0.847
TEDEEFAFEIIRLFHEALLTGDEETLHHLVDPNARMQIGEFTTHGRSMVKFFNKRFDHWEMRVEFRRIHYIGDKVFVDTRIRILIEYNGRFIETSVEQRIVTRKIDGKWQITRLEIV | 1.05
TEDEEISEKAFRYLVESLETGDEETDRHLADPHVRIVFEGRSYHGREQFHEIMSHIRVHHVEIRDVRVQGNKVDWDTQSKVEFNGRKYWVQTRIIVLKVDGRWILHSYILK | 0.708
TEDEEKSHEFVHRLSHSVMTGDWKDIKRLADPNMKSRVNGREIHGWDKTKRMLDEEEEQLGVSRFEFDLKRVDTQGDKLFIDMRMKVNGRTLEVTYHVEKVNGRWLVTEFHIL | 0.555
TEDEELAKLVSEILLHIMETGDEDKLSKMADPHVRVNINGRERHGWRNMVRVLHETIRNLGIEIKSVHIRDLKIQGDKIRVTMEIDYQQGDKRNEWSSHLIIIKIDGRWHLHAFELN | 1.26
TEDEELIERYVRFFLKIMETGDEKLTERMMDPDARFEIGDKEEHGREAIYEWLSKIKNIRIKIHHIKIQGDKLHLDVRFHINGKEIEVEIVSKKIDGKWMVHSVIVK | 1.5
TEDEELSHEIFEIWERVRRTGDEHTLERLADPNMRVHIDGQDYHGREMLFEFLNRFKGLKSDIHDMRIEIVGDYIILNIKVHITVNGREIHLTIHLHSRKFNGKWHLKELEIRKI | 1.32
TEDEELTSRANKEFQEFETTGDEEVLKRLFDPNTRLDVNGQDRHGRDEVVHLLVRMIHKLGIDHVSLKEVRIVNGKLDLNLTINVGEKRINTRLIHKKVNGRWVIETVEMG | 1.23
TEDEENAERVARMFLKLLTTGDEHRLTELLDPNVIVEVGDKILIGREEALKLLRTWREKYGIDHVDVRHVEIEIVGDKVNVHMHGTIYVGDKKKDTRIHLHIRKINGRWMVEKVSIEEK | 2.68
TEDEENVIEATRIFNRVLETGDEDSLKRLLDPNVRVNFDGVELIGWEDFLKFVFEWRKKAGITQVKSEPRDMDLQGNKVHNETILHINGRTFETRLVHEKVNGRWIARSIRFS | 1.21
TEDEEYVKHIIDLFWHVKKTGDESHMKELADPNVRIEVDGRDIIGMEDVLKWEKDHREKIKGIRLNVHQWRIIGNKVESDLIVNINGVTIEFHVTVIIVNGKLHSLRVEFE | 1.21
TEDEHDARLALHILLELLRTGDEDSLSKYIDPNVRNEVNGQDLHGRNTMERLLKHWRIEEVRVKDVRVQGDKVIMHGREVIRQGDYVIDQDVHWLLVKVDGRWLLHSIHFR | 0.918
TEDEHHEELIAKELFHNFLTGNEDLLSEMADPNTKSDIDGKHDVGREEMSRSLIEFLDKMGIKHLVLTDHRAVNGKVILHERVHVNGRDIEVNLTWDVWNGRIKRVEIRITHR | 0.982
TEDEKFVEEFTRLIMHSFRTGDWELFEHLLDPDTRIEQGDWERIGMEEAIRLLHKVVHEMRVTHTDLKSITVIDGRIEIDARVHLEFNGQSVTYTQLILSIKIDGRWVLKSVHFH | 1.87
TEDEKIAKDTLEEITEALATGDEDQLNRLMDPNVKIFFNGQEIHGRHDSVKYWREIRIRDSHIIIRHVDIQGDKIRLDGEYQLRGEIDGQEIERTMHVRLFMHKVNGRWIVRRQVWG | 1.56
TEDEKLSEDMTQHFIELLFTGDFDKISELADPNVRIHAENRTLVGRESFKRLMKKEIEFFKGARFHIEDLHIYDGRVDIHEIVSYGEFVIRRTIHSHKINGKWLETEVRLG | 0.929
TEDEKLVEIALELWLRSLRTGDEDMFRELFDPNTRIFVNGVDHHGRHALEIVKERYDHVRDFHIELRSVHYVNGVLHVDGHFRMDIKYGDKRRIIENRTIMIIEKINGRWIFKHERLE | 1.24
TEDEKMAEDLLKLILEAMETGDERIFRHLVDPNVRVSQGEKQLHGREAVEEMLKHLRLHRVRIRDVHVVGDKIIVQGEIHGEIGDFRFESHIIVYIHKFNGQWRHKSIEIK | 1.42
TEDEKMLKESLERLLYTLHTGDEEFNKRLMDPEVRIVIGDKELHGMELARKFWEKLYKDLGADHVHMDVKHVRSIGDKVEVDSQLIFRVGDKEIRVDTKLFSHKFDGRWRLRYEYVD | 1.39
TEDEKRYDDLVRHMLEVHRTGDEDLLERLLDPNARFLIDGVEYHGREQALEIARELRITSIRIRRIEFYGDKVTMDTEIDGRVNGRRRDTRVKEIWLKVDGKWYLESMEIH | 1.43
TEDEKTAKHAKELLEHSIRTGDERLMERLLDPHALLIFDGRHIHGREDISRWYREIRIHHIHDENSEIQGDKLHLHMRIDGEYDGKRHELRVHWHSEKVNGRWSIRQVVLH | 1.44
TEDEKVMKEAVEIQIHMFRTGNWDSLHKLVDPNARLDVDGREFHGREDFVRFIKKEAHEARVEDVIFRHVTTQGDKIVTHFDVRGVINGVEEIRKVTVFLRKINGRWLIESEEID | 0.737
TEDEKVNDLAMEEIYTLMLTGDEERMEELFDPNVRMIIDGRRHVGREVFKDHMREWRWERTHVEDQRTFDGRAILHTRVDVTVGDKRRDVRIHIISSKINGRWVIKRIIIE | 0.758

Sequence | protease stability score
TEDERDAKRMAETMVKLWETGDWRTLFELADPDMRFEYGDKRFHGREKLIKVLRDIFERLGIDHSHVRDFKIIFVGEKVEVRLDIETHFDGRTEEFHIEINVRKIDGRWRLKSMHIEIR | 2.02
TEDERDFREFWERWLHNTVTGDEELLSRMMDPHAKLHVGDKENVGMEEAARLFVEISDELRLHSFHIRHEEHQGDKVILHTRMNVRINGKEINFRTVMIVRKIDGRWIIRSFQID | 0.713
TEDERDMHEAMERHLQDLRTGNWEDVHRQVDPNVRLVFNGKEVHGREEYVEHTVRLAERADHIELRIRHIDTQGDKLRVEGELIIRQGDKTFIHEVELLFLKVNGRWIIHSFEIK | 1.55
TEDERDMQEFYERLIHAIHTGDWREIRRQFDPNVLLNFNGKEIHGREQALRLMRELLHRADVIDDTKTKDLKFYNGRVELHIHEQGQINGQHFRSDVMLIVEKVNGRWYMKSYQID | 1.37
TEDERDVVKLLHLVSKLWLTGDEHILEHLADPSVRSDFDGVRLHGRRLLSYFLSELRIHHVEVRDVRVEYQGDKLIARSDTEVDLEIDGQRHRMDTRMILISRKWDGRWLIESISFEIQ | 2.04
TEDERHLEESIELFHEVHRTGDEEQLHRMLDPSVRVDVNGRILHGREIVVEWLRRTLEKFKNVQIEFILKDRDHINGVLRIHGVLLVNVGDKHTIIDTIIVAHKVNGRWLIHSMHVK | 2.15
TEDERILKELAHLLLLLWKTGDENIWRELADPNVRVIFLIGDKEEHHHGRDMFIKLRHDYGVDHMELRRVDVQGDKVRFEGDLWVDGRIHRVHINFSVINGKVHQIKIDFS | 2.49
TEDERLFHETLKIFEHAVQTGDEEELERMLDPNVRSTINGVRLHGRESFRKLFHIIWREIRFESVDVKRIHIQGDKMIWFTRIDGIFNGQRDLREVTIFADKIDGRWIFKEVDVR | 2.1
TEDERMNKEFHRLIWELIDTGDEETLRKLADPNTRLEVNGKTIIGREEFLSIWKHELHMLGVKHLEIHIRSVMFFENRVENDVELVLHIGEYEERRRIHIFLIKINGKWYHKSERIR | 1.46
TEDERMVSEHLKQWLHSLRTGDEDTIQRLFDPHTRIIFEGHEFIGMEDMEEWLTKFHEEARSHKLIIKRIHIIGDKVHVEGVLDGEYNGRRHELKVIIIALKINGRWVMHQIEIR | 1.97
TEDETIAELALEEFIRILETGDEDDVNRLLDPHVRVDIDGKEIHGREHVYHHLRNLGVRIKIEWKRIRVVDGKVDSDGHVIERFNGRDIEVKSQFIMRKIDGRWVVHHFTRR | 0.488
TEDHEDLRRFWEYFEEAFRTGDWKALSDLADPNVKIRIGDKLHVGRDDYYEFLRELIERVDHMELRLKRVHLVGDKLHVDSTLDLHVNGKRIHSRSRFTFTKVDGKWKVESVHYE | 1.61
TEDHEIVEDALRLWWTSVHTGDETLMSRLADPDVRLIVGDKHFHGREKFTRTMKELDDEMRFHHLEIKEFELFDGRIKINVRLRGTIGDKHTIFEVNVINLKVNGKWLLKSLEVR | 1.1
TEDHERIKKHIEILMHNLKTGNFEALVRMADPHVRFRLVQGNFHDETHGRDAWREVLERLGIDHIEIRDIRIHLYDGRLEMRIDGISRFNGREHKVELIIIIDKIDGRWRISEVELRIE | 2.15
TEDHRDIYRIVKLLIEFFKTGDFDSLRHLADPNTRLDIGDKHRHGMDLILKEYMDEMHELGVKHFDIKIHDVEIQGDKAQWDLRLHIKVGDKIIELRVILHAVKVNGKWILHKIEFI | 1.38
TEDIEHMIKVVEIFLRAVTTGNEDEMKYLMDPRMRLVVGDKIHHGWEEIWKFLEHIREERDKVHTKDTKVYNGRMDINSRVSSTIHFNGVRIEIDHEVHFHIKKINGRWFIEEIRIQ | 1.3
TEDKEIAIRVTEHFIEAIYTGDEDRVRDLLDPEARLDVNGVELHGMRWFTFWLRQIRIHNMYIRHTEVQGDKVHVDMEQDVEFNGKRHELKSHFVLLKVNGRWTVKHYNVR | 2.28
TEDKEKDDEVAHLFLNAVRTGDEELFQDLVDPETRLNVNGQEIHGRENVFRHMRETWDKMGVDHVELKDRRHINGVLILHFEIRVGDKTIHVEYIIEKIDGRWILTKVHIR | 0.569
TEDLEKVHTFLNLLLHSRLTGDEDSLHRMADPNMRVDQGEYQHHGRELFIEWTKRELEHLRLRHYHLEDIDIYNGVVKVTGKMDVEVNGRRHHVDVTLIVLKINGRWHLKSVHIS | 1.24
TEDLHQYHEFLEEMIRWLRTGDWEAKHRNADPNVRLDFNGVDFHGMEIVAKIEMELRRRVDHIELEVKRSEIVNGRVHIDQVYHIEYNGRSYEVKSELIVKKVNGKWLIKEERVR | 0.322
TEDMEVMRRILELFIELVTTGDWEILRELLDPNVRIEIGDKQLHGRELVSNSLLLLGVDHIRVKDMKIQGEKLHIETENEINGVKLNTHILLLKINGRWLIKDLSVK | 1.29
TEDQEEAKRLLHHLAHNWFTGNEHILTRLADPNTRMNVNGRDYHGREIMHETVREILERLGIDHFEIKDMRFIVQGEKIHIHIHIRSTVNGQEEDFRLSISVHKIDGRWVIKEINLHFI | 0.511
TEDQEQAEEHFREEIHHWRTGDEDQLRRLMDPNTRIEIGDKVLHGREHAELFLRRYKGLKIDRFEIRHRDHQGDYVILHTHFRGEVNGRDFENTVQLVVLKVDGRWFLKYIRVE | 1.64
TEDQEQLEQHIRELTHNWHTGDFDSLKKLFDPNVKLEIGDKEYHGRELAEKYIRDELRHLRIEHVENREWRLINGVIILHTRLVGNIDGQRVERDTEIYVKKFDGQWIIEIFRVH | 1.34
TEDREEVRRWWKDLLRSLHTGDEEVLRKQIDPNVKLVDEDERSVGMDRFVKFMHFINREIRIERIHIKRLRLIDGQLEADTRMHVNIDGRIEETDVHILAKKVDGKWLLTSVILD | 1.48
